Data taken from patent US20260193376A1 (Novo Nordisk, published 2026).
Positions count from the first letter of the chain named.

B1: one-armed (OA) mAb01-9986 (antibody, V domains shown)
VH: EVQLVESGGGLVQPGRSLRLSCAASGFTFHDYAMHWVRQVPGKGLEWVSGISWRGDIGGYVKSVKGRFTISRDNAKNSLYLQMNSLRAEDTALYYCVKSYGSGSFYNAFDSWGQGTLVTVSS
VL: DIQMTQSPSTLSASVGDRVTITCRASQSISSWLAWYQQKPGKAPKFLIYKASRLERGTPSRFSGSGSGTEFSLTISSLQPDDFATYYCLEYSSYIRTFGQGTKVEIK
B2: one-armed (OA) mAb11-1073 (antibody, V domains shown)
VH: B1 VH with R54K, K62D, V97A
VL: B1 VL with R53K, E55D, S72T
B3: one-armed (OA) mAb11-0174 (antibody, V domains shown)
VH: B1 VH with R19K, V40A, R54K, K62D, V97A
VL: B1 VL with R53K, E55D, S72T
B4: one-armed (OA) mAb11-0939 (antibody, V domains shown)
VH: B1 VH with R54K, K62D, A75E
VL: B1 VL with E55D, T58W
B5: one-armed (OA) mAb11-0047 (antibody, V domains shown)
VH: B1 VH with V40A, G58K, K62D, M83L, V97A
VL: B1 VL with V15A, Q27K, E55D, S60Q
B6: one-armed (OA) mAb11-0723 (antibody, V domains shown)
VH: B1 VH with R19K, H30D, R54K, K62D, M83L, V97A
VL: B1 VL with V15A, E55D
B7: one-armed (OA) mAb11-0107 (antibody, V domains shown)
VH: B1 VH with R19K, M83L
VL: B1 VL with R18E, S52Q, E55D, S60Q, S72T
B8: one-armed (OA) mAb01-9016 (antibody, V domains shown)
VH: B1 VH with R19K, H30D, K62D, M83L
VL: B1 VL with V15A, T58V
B9: one-armed (OA) mAb11-1260 (antibody, V domains shown)
VH: B1 VH with R54K, K62D, A75E
VL: B1 VL with S28Q, E55D
B10: one-armed (OA) mAb11-1030 (antibody, V domains shown)
VH: B1 VH with G26K, R54K, K62D, V97A
VL: B1 VL with R53K, E55D, S72T
B11: one-armed (OA) mAb11-1262 (antibody, V domains shown)
VH: B1 VH with R54K, K62D, A75E
VL: B1 VL with S30Q, E55D
B12: one-armed (OA) mAb11-1033 (antibody, V domains shown)
VH: B1 VH with G26K, R54K, K62D, V97A
VL: B1 VL with R53K, S72T
B13: one-armed (OA) mAb11-1039 (antibody, V domains shown)
VH: B1 VH with R19K, G26K, V40A, R54K, K62D, V97A
VL: B1 VL with R53K, E55D, S72T
B14: one-armed (OA) mAb11-0049 (antibody, V domains shown)
VH: B1 VH with V40A, G58K, K62D, M83L, V97A
VL: B1 VL with V15A, T22S, F46L, E55D, S72T, S92N
B15: one-armed (OA) mAb11-1204 (antibody, V domains shown)
VH: B1 VH
VL: B1 VL with R18E, R53K
B16: one-armed (OA) mAb01-9696 (antibody, V domains shown)
VH: B1 VH with R19K, H30D, K62D, M83L
VL: B1 VL with V15A, E55D
B17: one-armed (OA) mAb11-0164 (antibody, V domains shown)
VH: B1 VH with R19K, T28R, H30D, R54K, V61A, K62D, M83L
VL: B1 VL
B18: one-armed (OA) mAb11-0965 (antibody, V domains shown)
VH: B1 VH with G26K, V40A, R54K, V61A, K62D, V97A
VL: B1 VL with R53K, S72T
B19: one-armed (OA) mAb11-1259 (antibody, V domains shown)
VH: B1 VH with R54K, K62D, A75E
VL: B1 VL with S28K, E55D
B20: one-armed (OA) mAb11-1042 (antibody, V domains shown)
VH: B1 VH with R19K, G26K, V40A, R54K, K62D, V97A
VL: B1 VL with R53K, S72T
B21: one-armed (OA) mAb11-1273 (antibody, V domains shown)
VH: B1 VH with R54K, K62D, A75E
VL: B1 VL with E55D, S77E
B22: one-armed (OA) mAb11-1094 (antibody, V domains shown)
VH: B1 VH with R19K, R54K, K62D, V97A
VL: B1 VL with R53K, S72T
B23: one-armed (OA) mAb11-0173 (antibody, V domains shown)
VH: B1 VH with V40A, R54K, K62D, V97A
VL: B1 VL with R53K, E55D, S72T
B24: one-armed (OA) mAb11-1024 (antibody, V domains shown)
VH: B1 VH with G26K, V40A, R54K, K62D, V97A
VL: B1 VL with R53K, S72T
B25: one-armed (OA) mAb11-0160 (antibody, V domains shown)
VH: B1 VH with R19K, T28R, H30D, R54K, V61A, K62D, M83L
VL: B1 VL with R18E, Q27K, K45R, S60Q, S72T, S76Y
B26: one-armed (OA) mAb11-1254 (antibody, V domains shown)
VH: B1 VH with R54K, K62D, A75D
VL: B1 VL with E55D
B27: one-armed (OA) mAb11-0933 (antibody, V domains shown)
VH: B1 VH with R54K, K62D, A75E
VL: B1 VL with E55D, T58N
B28: one-armed (OA) mAb11-1266 (antibody, V domains shown)
VH: B1 VH with R54K, K62D, A75E
VL: B1 VL with E55D, R56K
B29: one-armed (OA) mAb11-1076 (antibody, V domains shown)
VH: B1 VH with R54K, K62D, V97A
VL: B1 VL with R53K, S72T
B30: one-armed (OA) mAb11-0923 (antibody, V domains shown)
VH: B1 VH with R54K, K62D, A75E
VL: B1 VL with E55D, T58C
B31: one-armed (OA) mAb11-1021 (antibody, V domains shown)
VH: B1 VH with G26K, V40A, R54K, K62D, V97A
VL: B1 VL with R53K, E55D, S72T
B32: one-armed (OA) mAb11-0931 (antibody, V domains shown)
VH: B1 VH with R54K, K62D, A75E
VL: B1 VL with E55D, T58L
B33: one-armed (OA) mAb11-1091 (antibody, V domains shown)
VH: B1 VH with R19K, R54K, K62D, V97A
VL: B1 VL with R53K, E55D, S72T
B34: one-armed (OA) mAb11-1233 (antibody, V domains shown)
VH: B1 VH with T28K, R54K, K62D, A75E
VL: B1 VL with E55D
B35: one-armed (OA) mAb11-0935 (antibody, V domains shown)
VH: B1 VH with R54K, K62D, A75E
VL: B1 VL with E55D, T58Q
B36: one-armed (OA) mAb11-0929 (antibody, V domains shown)
VH: B1 VH with R54K, K62D, A75E
VL: B1 VL with E55D, T58I
B37: one-armed (OA) mAb01-9373 (antibody, V domains shown)
VH: B1 VH with R19K, G58I, K62D, M83L
VL: B1 VL with V15A, R18E, Q27K, K45R, E55D, S72T, S77H
B38: one-armed (OA) mAb11-0962 (antibody, V domains shown)
VH: B1 VH with G26K, V40A, R54K, V61A, K62D, V97A
VL: B1 VL with R53K, E55D, S72T
B39: one-armed (OA) mAb11-0149 (antibody, V domains shown)
VH: B1 VH with R19K, H30D, V40A, R54K, K62D
VL: B1 VL with V15A, R18E, S30K, E55D, S60Q, S77R
B40: one-armed (OA) mAb11-0938 (antibody, V domains shown)
VH: B1 VH with R54K, K62D, A75E
VL: B1 VL with E55D, T58V
B41: one-armed (OA) mAb11-1268 (antibody, V domains shown)
VH: B1 VH with R54K, K62D, A75E
VL: B1 VL with E55D, S60K
B42: one-armed (OA) mAb11-0932 (antibody, V domains shown)
VH: B1 VH with R54K, K62D, A75E
VL: B1 VL with E55D, T58M
B43: one-armed (OA) mAb11-0937 (antibody, V domains shown)
VH: B1 VH with R54K, K62D, A75E
VL: B1 VL with E55D, T58S
B44: one-armed (OA) mAb11-1275 (antibody, V domains shown)
VH: B1 VH with R54K, K62D, A75E
VL: B1 VL with E55D, Q79T

These binders were tested against human plasma-derived Factor IXa (human, UniProt P00740 47-191; P00740 227-461) (assay: cell-based or functional assay).
human plasma-derived Factor IXa, sequence (P00740 47-191, chain 1 of 2): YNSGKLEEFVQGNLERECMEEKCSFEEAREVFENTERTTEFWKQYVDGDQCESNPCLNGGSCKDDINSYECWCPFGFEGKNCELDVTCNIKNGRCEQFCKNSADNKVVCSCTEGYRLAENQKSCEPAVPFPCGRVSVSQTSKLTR
human plasma-derived Factor IXa, sequence (P00740 227-461, chain 2 of 2): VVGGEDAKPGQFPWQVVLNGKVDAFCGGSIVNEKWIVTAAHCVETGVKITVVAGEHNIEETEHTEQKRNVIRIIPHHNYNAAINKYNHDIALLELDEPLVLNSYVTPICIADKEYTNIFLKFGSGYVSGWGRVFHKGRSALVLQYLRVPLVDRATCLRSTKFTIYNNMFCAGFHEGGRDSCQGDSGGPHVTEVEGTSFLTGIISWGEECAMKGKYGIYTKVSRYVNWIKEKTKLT

Stimulation Index, FXa generation assay, 800 nM OA antibody [fold] | Stimulation Index, FXa generation assay, 1600 nM OA antibody [fold] | Stimulation Index, FXa generation assay, 760 nM OA antibody [fold] | Binder
5820 | – | – | B1
6150 | – | – | B2
3690 | – | – | B3
2010 | – | – | B4
2860 | – | – | B5
3770 | – | – | B6
3260 | – | – | B7
– | 5900 | – | B8
1760 | – | – | B9
5750 | – | – | B10
1950 | – | – | B11
5130 | – | – | B12
3960 | – | – | B13
1510 | – | – | B14
– | 9100 | – | B15
– | 5170 | – | B16
3270 | – | – | B17
2860 | – | – | B18
2000 | – | – | B19
4320 | – | – | B20
1540 | – | – | B21
4080 | – | – | B22

Stimulation Index, FXa generation assay, 800 nM OA antibody [fold] | Stimulation Index, FXa generation assay, 1600 nM OA antibody [fold] | Stimulation Index, FXa generation assay, 760 nM OA antibody [fold] | Binder
– | 8480 | – | B23
3650 | – | – | B24
4550 | – | – | B25
– | – | 1890 | B26
1610 | – | – | B27
1700 | – | – | B28
3590 | – | – | B29
2820 | – | – | B30
4650 | – | – | B31
1880 | – | – | B32
5400 | – | – | B33
1700 | – | – | B34
1570 | – | – | B35
1560 | – | – | B36
– | 1390 | – | B37
3370 | – | – | B38
3320 | – | – | B39
1820 | – | – | B40
1800 | – | – | B41
1690 | – | – | B42
2680 | – | – | B43
1840 | – | – | B44
